Assay results from patent US20050227302A1, “Induction of apoptosis via ARTS-IAP complexes” (priority 2004, published 2005).

Experiments:
[1] = target: T1, Myc epitope-tagged wild-type XIAP (Homo sapiens (Human), UniProt P98170 1-497); assay: immunofluorescence co-localization by confocal microscopy in COS-7 cells transfected with AU5-ARTS and pcDNA3-Myc-XIAP, treated with etoposide
T1 construct: Expressed by transient transfection in COS-7 cells and used as cell lysate; The construct came from Dr. Colin S. Duckett; also called myc-tagged XIAP; mycXIAP
T1 sequence (P98170 whole entry): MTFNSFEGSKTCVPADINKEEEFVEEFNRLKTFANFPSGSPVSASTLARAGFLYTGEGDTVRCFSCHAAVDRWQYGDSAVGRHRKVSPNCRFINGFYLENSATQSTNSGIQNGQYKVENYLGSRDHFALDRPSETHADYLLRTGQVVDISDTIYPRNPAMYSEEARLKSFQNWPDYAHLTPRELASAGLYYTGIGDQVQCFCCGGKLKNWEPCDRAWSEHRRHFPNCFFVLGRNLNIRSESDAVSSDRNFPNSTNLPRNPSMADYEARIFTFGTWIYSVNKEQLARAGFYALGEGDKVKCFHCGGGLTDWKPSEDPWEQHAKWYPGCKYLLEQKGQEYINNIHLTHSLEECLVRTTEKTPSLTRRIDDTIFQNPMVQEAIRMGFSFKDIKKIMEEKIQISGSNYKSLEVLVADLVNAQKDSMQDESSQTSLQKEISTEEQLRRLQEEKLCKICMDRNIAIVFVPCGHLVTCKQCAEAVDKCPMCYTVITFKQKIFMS
Description: FIG. 5. ARTS and XIAP co-localize during apoptosis. Immunofluorescence assay of COS-7 cells with anti-ARTS antibody (left column) and anti-XIAP antibody (second column from left). Nuclei are stained with Dapi (third column from left). Merged images are shown in the right column. Cells were untreated (top panel) or treated with […] etoposide for 2 hours (middle panel) or 16 hours (lower panel). Cells were analyzed using confocal microscopy (magnification 60). Non-apoptotic cells had very little overlap between ARTS and XIAP staining (top panel), with ARTS primarily localized to mitochondria and XIAP staining cytoplasmic, with some peri-nuclear concentration. Two hours after induction of apoptosis, co-localization of ARTS and XIAP occurred primarily near the nucleus (middle panel). After 16 hr both proteins perfectly co-localized in the nucleus.
To confirm the finding that ARTS-XIAP complexes exist in apoptotic cells, COS-7 cells transfected with AU5-ARTS and pcDNA3-Myc-XIAP were visualized by confocal microscopy. Apoptosis was induced with etoposide, and cells were stained after 2 and 16 hours. In non-apoptotic cells, ARTS and XIAP had distinct, essentially non-overlapping distributions, with ARTS primarily localized to mitochondria, whereas XIAP was localized to the cytoplasm, with some peri-nuclear concentration (FIG. 5, top panel). […]

XIAP [2] = assay: Co-immunoprecipitation of ARTS-XIAP complexes in COS-7 cells; assay type: cell-based, African Green Monkey; conditions: un-transfected COS-7 cells, apoptosis induced with staurosporine, IP anti-ARTS
Description: Protein extracts were prepared with lysis buffer (150 mM NaCl, 50 mM Tris-HCl (pH 8), 1% NP-40, 0.5% deoxycholate acid) with protease inhibitors. Lysates containing equal amounts of total protein were pre-cleared overnight with 1 mg mouse IgG (Sigma) coupled with protein A/G-Sepharose mix (Amersham Biosciences) and the beads centrifuged. Supernatants were immuno-precipitated using 5 μl of anti-ARTS antibody for 4 h, anti-XIAP antibody, rabbit anti-myc antibody, or mouse IgG (negative control). Protein A/G Sepharose beads were added for 1 hour and washed four times with PBS. Antibodies against XIAP (as above), Myc (Santa Cruz), or anti-ARTS (NT) antibodies directed against the common N′ terminus of ARTS and H5 (ProSci Incorporated) were used for Western blot.

XIAP [3] = target: T2, XIAP (Homo sapiens, UniProt P98170); assay: GST pull-down assay of ARTS and XIAP; assay type: binding
T2 construct: made in house; host or cells: bacteria (pGEX-XIAP plasmid obtained from Dr. Colin S. Duckett)
T2 sequence (P98170 whole entry): as above
Description: For the glutathione-S-transferase (GST)-pull down assays, ARTS was subcloned into the pGEX 4T™ (Pharmacia Biotech) construct; GST-ARTS fusion protein was generated by Polymerase Chain Reaction (PCR) using the following primers: • BamHI-5′-[…]-3′ (SEQ ID No: 4) and • EcoRI-5′ […]-3′ (SEQ ID No: 5) and cloned into BamHI and EcoRI sites in pGEX 4T. Preparation of Beads
For in vitro binding studies, recombinant GST-ARTS or GST-XIAP fusion proteins were purified from bacteria. After sonication, 0.1% Triton X-100 and protease inhibitors (Mini-Complete™, Roche) were added to the bacterial extract followed by 10,000 rotations per minute (RPM) centrifugation. Supernatants of bacterial extracts were collected and incubated in the presence of glutathione-Sepharose 4B beads (Amersham Biosciences) for 30 minute at 4° C. The beads were washed three times.
Cells were lysed in RIPA buffer (150 mM NaCl, 50 mM Tris-HCl (pH 8), 1% NP-40, 0.1% SDS, 0.5% deoxycholate acid containing protease inhibitors (mini Complete, Roche)). Samples were divided into two tubes; one was rotated for 4 h at 4° C. with GST-ARTS fusion protein coupled with the glutathione beads, or GST-XIAP fusion protein. The second tube was incubated with glutathione beads alone (negative control). Samples were centrifuged at 4000-RPM at 4° C. for 4 minute and washed five times in lysis buffer, then boiled in sample buffer for 5 minutes to elute bound proteins Proteins were separated on 12.5% SDS-PAGE gel followed by Western blot analysis using monoclonal anti-ARTS antibody (Sigma), monoclonal anti-XIAP antibody (BD Transduction Laboratories) or monoclonal anti-myc antibody (Clontech).

B1: AU5-ARTS (other)
chain: MIKRFLEDTTDDGELSKFVKDFSGNASCHPPEAKTWASRPQVPEPRPQAPDLYDDDLEFRPPSRPQSSDNQQYFCAPAPLSPSARPRSPWGKLDPYDSSEDDKEYVGFATLPNQVHRKSVKKGFDFTLMVAGESGLGKSTLVNSLFLTDLYRDRKLLGAEERIMQTVEITKHAVDIEEKGVRLRLTIVDTPGFGDAVNNTECWKPVAEYIDQQFEQYFRDESGLNRKNIQDNRVHCCLYFISPFGHGYGPSLRLLAPPGAVKGTGQEHQGQGCH
notes: Expressed in transfected COS-7 cells and used as lysate or stained in cells; also called pEF1-AU5-ARTS; AU5-tagged ARTS; not shown: AU5 tag attached to the N' terminus of ARTS
binding result [1]: binds | interaction of endogenous ARTS and XIAP (XIAP [2]): interact with each other | binding to GST-XIAP (XIAP [3]; lysates of COS-7 cells transfected with AU5-tagged construct, Western blot anti-AU5): bound to XIAP | binding of XIAP to GST-ARTS (XIAP [3]; lysates of COS-7 cells transfected with pcDNA3 mycXIAP, Western blot anti-XIAP and anti-Myc): XIAP bound to ARTS
